Consider three molecules from patent publication US20180371087A1 (published 2018).

The target of experiment [1] is T1, human LAG-3 (Lymphocyte Activation Gene-3), native or transduced, on the cell surface (UniProt P18627 23-525).
T1 chain: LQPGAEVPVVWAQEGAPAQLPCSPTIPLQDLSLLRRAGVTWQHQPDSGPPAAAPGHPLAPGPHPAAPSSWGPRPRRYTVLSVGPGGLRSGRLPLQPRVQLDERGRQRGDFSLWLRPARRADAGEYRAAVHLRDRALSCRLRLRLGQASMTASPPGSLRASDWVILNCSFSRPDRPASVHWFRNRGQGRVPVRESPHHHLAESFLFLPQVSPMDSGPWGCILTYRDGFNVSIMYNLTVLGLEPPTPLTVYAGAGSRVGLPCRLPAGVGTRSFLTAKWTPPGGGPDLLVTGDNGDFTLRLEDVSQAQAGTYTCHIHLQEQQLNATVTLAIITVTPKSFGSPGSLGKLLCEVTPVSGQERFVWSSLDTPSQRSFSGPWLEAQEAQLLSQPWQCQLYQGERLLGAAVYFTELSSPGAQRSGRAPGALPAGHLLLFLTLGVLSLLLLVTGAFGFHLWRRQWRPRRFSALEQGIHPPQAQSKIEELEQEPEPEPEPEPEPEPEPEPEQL
Put plainly: FACS binding; activated human CD4+ T cells. On the technique in general: Flow cytometry measures light scatter and fluorescence of single cells or particles in a stream.

In the next experiment the target is D1D4 construct. Put plainly: SPR (Biacore). Background: SPR reads the build-up and loss of mass on a sensor chip optically.

Numbering of substitutions follows the chain as printed. In names and notes the source's numbering stands.

B1: LAG3.7-G4P (antibody, V domains shown)
VH: QVQLQQWGAGLLKPSETLSLTCAVYGGSFSDYYWNWIRQPPGKGLEWIGEINHGGGTNSNPSLKSRVTLSLDTSKNQFSLKLRSVTAADTAVYYCAFGYSDYEYNWFDPWGQGTLVTVSS
VL: EIVLTQSPATLSLSPGERATLSCRASQSISSYLAWYQQKPGQAPRLLIYDASNRATGIPARFSGSGSGTDFTLTISSLEPEDFAVYYCQQRSNWPLTFGQGTNLEIK
What is called EC50 is the concentration at which the effect is half-maximal. In experiment [1], B1 returned a concentration for a half-maximal effect (EC50) of 0.33 nM.

B2: LAG3.8 antibody variant of LAG3.1 (antibody, V domains shown)
VH: B1 VH with G54I, G56N
VL: EIVLTQSPATLSLSPGERATLSCRASQSISSYLAWYQQKPGQAPRLLIYDASNRATGIPARFSGSGSGTDFTLTISSLEPEDFAVYYCQQRSNWPLTFGQGTNLEIKR
Consider B2, for which the midpoint of the response in experiment [1], the EC50, lay at 0.19 nM.

B3: LAG3.8 (antibody, V domains shown)
VH: B1 VH with G54I, G56N
VL: B2 VL
As a reminder, the Kd is the constant that tells how readily two partners part at equilibrium. Low values mean a tighter complex, high ones a looser complex. Turning to B3, the Kd with D1D4 construct turned out to be 0.3 nM.
